Experimental data as given in patent US20190382484A1 (Chugai, published 2019).

What was measured:
[1] = target: T1, FcγRIIIa extracellular domain (UniProt P08637 17-208, limits assumed); test: SPR (Biacore T200), mixed half molecules captured via biotinylated antigen peptide on CAP chip, FcγR as analyte, 25 C
T1 construct: extracellular domain; Purified over HisTrap, so a His tag is implied
Method: Interaction analysis of antibody-half molecules of interest and FcγR was performed using Biacore (registered trademark) T200. Biotin CAPture Kit, Series S (GE Healthcare) was used for the measurement, and HBS-EP+10X (GE Healthcare) diluted 1/10th was used as a running buffer. The measurement temperature was 25° C. For the sensor chip, Series S Sensor Chip CAP (GE Healthcare) onto which previously-biotinylated antigen peptides were allowed to interact and thereby immobilized was used. These chips were allowed to capture the antibody-half molecules of interest and then interact with FcγR diluted with the running buffer. The antigens and antibody-half molecules captured on the chip were washed as described in the instructions attached to the kit, and the chips were regenerated and reused.

[2] = target: T1, FcγRIIIa extracellular domain; test: SPR (Biacore T200), half molecule captured via biotinylated antigen peptide on CAP chip, FcγR as analyte

T1 sequence (P08637 17-208 limits assumed): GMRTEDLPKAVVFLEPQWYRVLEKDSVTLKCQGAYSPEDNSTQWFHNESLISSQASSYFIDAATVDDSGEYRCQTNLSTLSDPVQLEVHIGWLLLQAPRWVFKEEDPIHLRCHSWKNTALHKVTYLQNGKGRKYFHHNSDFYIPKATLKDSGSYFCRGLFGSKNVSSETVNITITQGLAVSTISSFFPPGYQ

B1: MRAH-DA303v2/MRAL-k0 + MRAH-DB220v2/MRAL-k0 (antibody, human IgG1, kappa)
heavy 1: QVQLQESGPGLVRPSQTLSLTCTVSGYSITSDHAWSWVRQPPGRGLEWIGYISYSGITTYNPSLKSRVTMLRDTSKNQFSLRLSSVTAADTAVYYCARSLARTTAMDYWGQGSLVTVSSASTKGPSVFPLAPSSKSTSGGTAALGCLVKDYFPEPVTVSWNSGALTSGVHTFPAVLQSSGLYSLSSVVTVPSSSLGTQTYICNVNHKPSNTKVDKKVEPKSCDKTHTSPPSPAPEYQWGPMVFLFPPKPKDTLMISRTPEVTCVVVDVSDEEPEVKFNWYVDGVEVHNAKTKPREEQYNATYRVVSVLTVLHQDWLNGKEYKCKVSNKALPAPIEKTISKAKGQPREPQVYTLPPSRKELTKNQVSLTCLVKGFYPSDIAVEWESNGQPENNYKTTPPYLDSDGSFFLYSDLTVDKSRWQQGNVFSCSVMHEALHNHYTQKSLSLSP
heavy 2: QVQLQESGPGLVRPSQTLSLTCTVSGYSITSDHAWSWVRQPPGRGLEWIGYISYSGITTYNPSLKSRVTMLRDTSKNQFSLRLSSVTAADTAVYYCARSLARTTAMDYWGQGSLVTVSSASTKGPSVFPLAPSSKSTSGGTAALGCLVKDYFPEPVTVSWNSGALTSGVHTFPAVLQSSGLYSLSSVVTVPSSSLGTQTYICNVNHKPSNTKVDKKVEPKSCDKTHTSPPSPAPELLGGPSVFLFPPKPKDTLMISRTPEVTCVVVDVSHEEPEVKFNWYVDGVEVHNAKTKPREEQYNSTYRVVSVLTVLHQDWLNGKEYKCKVSNDALPMPIEETISKAKGQPREPQVYTLPPSRDELTKNQVSLTCLVKGFYPSDIAVEWESNGQPENNYKTTPPYLDSDGSFFLYSDLTVDKSRWQQGNVFSCSVMHEALHNHYTQESLSLSP
light: not shown
notes: Mixture of the two antibody-half molecules, which form a non-covalent heterodimer when captured on antigen; also called A1 + B1
- Kd [1]: 6.1 nM

B2: MRAH-DA402v2/MRAL-k0 + MRAH-DB402v2/MRAL-k0 (antibody, human IgG1, kappa)
heavy 1: QVQLQESGPGLVRPSQTLSLTCTVSGYSITSDHAWSWVRQPPGRGLEWIGYISYSGITTYNPSLKSRVTMLRDTSKNQFSLRLSSVTAADTAVYYCARSLARTTAMDYWGQGSLVTVSSASTKGPSVFPLAPSSKSTSGGTAALGCLVKDYFPEPVTVSWNSGALTSGVHTFPAVLQSSGLYSLSSVVTVPSSSLGTQTYICNVNHKPSNTKVDKKVEPKSCDKTHTSPPSPAPEYQWGPMVFLFPPKPKDTLMISRTPEVTCVVVDVSDEEPEVKFNWYVDGVEVHNAKTKPREEQYNATYRVVSVLTVLHQDWLNGKEYKCKVSNKALPAPIEKTISKAKGQPREPQVYTLPPSRKELTKNQVSLTCLVKGFYPSDIAVEWESNGQPENNYKTTPPYLDSDGSFFLYSHLTVDKSRWQQGNVFSCSVMHEALHNHYTQKSLSLSP
heavy 2: QVQLQESGPGLVRPSQTLSLTCTVSGYSITSDHAWSWVRQPPGRGLEWIGYISYSGITTYNPSLKSRVTMLRDTSKNQFSLRLSSVTAADTAVYYCARSLARTTAMDYWGQGSLVTVSSASTKGPSVFPLAPSSKSTSGGTAALGCLVKDYFPEPVTVSWNSGALTSGVHTFPAVLQSSGLYSLSSVVTVPSSSLGTQTYICNVNHKPSNTKVDKKVEPKSCDKTHTSPPSPAPELLGGPSVFLFPPKPKDTLMISRTPEVTCVVVDVSHEEPEVKFNWYVDGVEVHNAKTKPREEQYNSTYRVVSVLTVLHQDWLNGKEYKCKVSNDALPMPIEETISKAKGQPREPQVYTLPPSRDELTKNQVSLTCLVKGFYPSDIAVEWESNGQPENNYKTTPPYLDSDGSFFLYSHLTVDKSRWQQGNVFSCSVMHEALHNHYTQESLSLSP
light: not shown
notes: Mixture of the two antibody-half molecules, which form a non-covalent heterodimer when captured on antigen; also called A2 + B2
- Kd [1]: 0.95 nM

B3: MRAH-DA405v2/MRAL-k0 + MRAH-DB405v2/MRAL-k0 (antibody, human IgG1, kappa)
heavy 1: QVQLQESGPGLVRPSQTLSLTCTVSGYSITSDHAWSWVRQPPGRGLEWIGYISYSGITTYNPSLKSRVTMLRDTSKNQFSLRLSSVTAADTAVYYCARSLARTTAMDYWGQGSLVTVSSASTKGPSVFPLAPSSKSTSGGTAALGCLVKDYFPEPVTVSWNSGALTSGVHTFPAVLQSSGLYSLSSVVTVPSSSLGTQTYICNVNHKPSNTKVDKKVEPKSCDKTHTSPPSPAPEYQWGPMVFLFPPKPKDTLMISRTPEVTCVVVDVSDEEPEVKFNWYVDGVEVHNAKTKPREEQYNATYRVVSVLTVLHQDWLNGKEYKCKVSNKALPAPIEKTISKAKGQPREPQVYTLPPSRKELTKNQVSLTCLVKGFYPSDIAVEWESNGQPENNYKTTPPYLDSDGSFFLYSTLTVDKSRWQQGNVFSCSVMHEALHNHYTQKSLSLSP
heavy 2: QVQLQESGPGLVRPSQTLSLTCTVSGYSITSDHAWSWVRQPPGRGLEWIGYISYSGITTYNPSLKSRVTMLRDTSKNQFSLRLSSVTAADTAVYYCARSLARTTAMDYWGQGSLVTVSSASTKGPSVFPLAPSSKSTSGGTAALGCLVKDYFPEPVTVSWNSGALTSGVHTFPAVLQSSGLYSLSSVVTVPSSSLGTQTYICNVNHKPSNTKVDKKVEPKSCDKTHTSPPSPAPELLGGPSVFLFPPKPKDTLMISRTPEVTCVVVDVSHEEPEVKFNWYVDGVEVHNAKTKPREEQYNSTYRVVSVLTVLHQDWLNGKEYKCKVSNDALPMPIEETISKAKGQPREPQVYTLPPSRDELTKNQVSLTCLVKGFYPSDIAVEWESNGQPENNYKTTPPYLDSDGSFFLYSTLTVDKSRWQQGNVFSCSVMHEALHNHYTQESLSLSP
light: not shown
notes: Mixture of the two antibody-half molecules, which form a non-covalent heterodimer when captured on antigen; also called A3 + B3
- Kd [1]: 1.2 nM

B4: MRAH-DB402v2/MRAL-k0 (antibody, human IgG1, kappa)
heavy: QVQLQESGPGLVRPSQTLSLTCTVSGYSITSDHAWSWVRQPPGRGLEWIGYISYSGITTYNPSLKSRVTMLRDTSKNQFSLRLSSVTAADTAVYYCARSLARTTAMDYWGQGSLVTVSSASTKGPSVFPLAPSSKSTSGGTAALGCLVKDYFPEPVTVSWNSGALTSGVHTFPAVLQSSGLYSLSSVVTVPSSSLGTQTYICNVNHKPSNTKVDKKVEPKSCDKTHTSPPSPAPELLGGPSVFLFPPKPKDTLMISRTPEVTCVVVDVSHEEPEVKFNWYVDGVEVHNAKTKPREEQYNSTYRVVSVLTVLHQDWLNGKEYKCKVSNDALPMPIEETISKAKGQPREPQVYTLPPSRDELTKNQVSLTCLVKGFYPSDIAVEWESNGQPENNYKTTPPYLDSDGSFFLYSHLTVDKSRWQQGNVFSCSVMHEALHNHYTQESLSLSP
light: not shown
notes: Antibody-half molecule (one H chain, one L chain); also called B2; antibody-half molecule B2
- binding result [2]: no binding

B5: MRAH-DB424v2/MRAL-k0 (antibody, human IgG1, kappa)
heavy: QVQLQESGPGLVRPSQTLSLTCTVSGYSITSDHAWSWVRQPPGRGLEWIGYISYSGITTYNPSLKSRVTMLRDTSKNQFSLRLSSVTAADTAVYYCARSLARTTAMDYWGQGSLVTVSSASTKGPSVFPLAPSSKSTSGGTAALGCLVKDYFPEPVTVSWNSGALTSGVHTFPAVLQSSGLYSLSSVVTVPSSSLGTQTYICNVNHKPSNTKVDKKVEPKSCDKTHTSPPSPAPELLGGPSVFLFPPKPKDTLMISRTPEVTCVVVDVSHEEPEVKFNWYVDGVEVHNAKTKPREEQYNSTYRVVSVLTVLHQDWLNGKEYKCKVSNDALPMPIEETISKAKGQPREPQVYTLPPSRDNLTKNQVSLTCLVKGFYPSDIAVEWESNGQPENNYKTTPPYLDSDGSFFLYSDLTVDKSRWQQGNVFSCSVMHEALHNHYTQESLSLSP
light: not shown
notes: Antibody-half molecule (one H chain, one L chain); also called antibody-half molecule B4
- binding result [2]: no binding

B6: MRAH-DB430v2/MRAL-k0 (antibody, human IgG1, kappa)
heavy: QVQLQESGPGLVRPSQTLSLTCTVSGYSITSDHAWSWVRQPPGRGLEWIGYISYSGITTYNPSLKSRVTMLRDTSKNQFSLRLSSVTAADTAVYYCARSLARTTAMDYWGQGSLVTVSSASTKGPSVFPLAPSSKSTSGGTAALGCLVKDYFPEPVTVSWNSGALTSGVHTFPAVLQSSGLYSLSSVVTVPSSSLGTQTYICNVNHKPSNTKVDKKVEPKSCDKTHTSPPSPAPELLGGPSVFLFPPKPKDTLMISRTPEVTCVVVDVSHEEPEVKFNWYVDGVEVHNAKTKPREEQYNSTYRVVSVLTVLHQDWLNGKEYKCKVSNDALPMPIEETISKAKGQPREPQVYTLPPSRDLLTKNQVSLTCLVKGFYPSDIAVEWESNGQPENNYKTTPPYLDSDGSFFLYSDLTVDKSRWQQGNVFSCSVMHEALHNHYTQESLSLSP
light: not shown
notes: Antibody-half molecule (one H chain, one L chain); also called B5; antibody-half molecule B5
- binding result [2]: no binding

B7: MRAH-DA405v2/MRAL-k0 (antibody, human IgG1, kappa)
heavy: QVQLQESGPGLVRPSQTLSLTCTVSGYSITSDHAWSWVRQPPGRGLEWIGYISYSGITTYNPSLKSRVTMLRDTSKNQFSLRLSSVTAADTAVYYCARSLARTTAMDYWGQGSLVTVSSASTKGPSVFPLAPSSKSTSGGTAALGCLVKDYFPEPVTVSWNSGALTSGVHTFPAVLQSSGLYSLSSVVTVPSSSLGTQTYICNVNHKPSNTKVDKKVEPKSCDKTHTSPPSPAPEYQWGPMVFLFPPKPKDTLMISRTPEVTCVVVDVSDEEPEVKFNWYVDGVEVHNAKTKPREEQYNATYRVVSVLTVLHQDWLNGKEYKCKVSNKALPAPIEKTISKAKGQPREPQVYTLPPSRKELTKNQVSLTCLVKGFYPSDIAVEWESNGQPENNYKTTPPYLDSDGSFFLYSTLTVDKSRWQQGNVFSCSVMHEALHNHYTQKSLSLSP
light: not shown
notes: Antibody-half molecule (one H chain, one L chain); also called A3; antibody-half molecule A3
- binding result [2]: no binding

B8: MRAH-DB405v2/MRAL-k0 (antibody, human IgG1, kappa)
heavy: QVQLQESGPGLVRPSQTLSLTCTVSGYSITSDHAWSWVRQPPGRGLEWIGYISYSGITTYNPSLKSRVTMLRDTSKNQFSLRLSSVTAADTAVYYCARSLARTTAMDYWGQGSLVTVSSASTKGPSVFPLAPSSKSTSGGTAALGCLVKDYFPEPVTVSWNSGALTSGVHTFPAVLQSSGLYSLSSVVTVPSSSLGTQTYICNVNHKPSNTKVDKKVEPKSCDKTHTSPPSPAPELLGGPSVFLFPPKPKDTLMISRTPEVTCVVVDVSHEEPEVKFNWYVDGVEVHNAKTKPREEQYNSTYRVVSVLTVLHQDWLNGKEYKCKVSNDALPMPIEETISKAKGQPREPQVYTLPPSRDELTKNQVSLTCLVKGFYPSDIAVEWESNGQPENNYKTTPPYLDSDGSFFLYSTLTVDKSRWQQGNVFSCSVMHEALHNHYTQESLSLSP
light: not shown
notes: Antibody-half molecule (one H chain, one L chain); also called B3; antibody-half molecule B3
- binding result [2]: no binding
